Measurements: PMC2781463 (The Journal of Biological Chemistry, 2009)

Molecular target: Blom7α-His6 (pET-30a(+)) (human, UniProt Q7Z7F0-1 1-614)
Test: pull-down

binding result: binds
B1: GST-SNEV^Prp19-Pso4 (natural protein)
chain: MSLICSISNEVPEHPCVSPVSNHVYERRLIEKYIAENGTDPINNQPLSEEQLIDIKVAHPIRPKPPSATSIPAILKALQDEWDAVMLHSFTLRQQLQTTRQELSHALYQHDAACRVIARLTKEVTAAREALATLKPQAGLIVPQAVPSSQPSVVGAGEPMDLGELVGMTPEIIQKLQDKATVLTTERKKRGKTVPEELVKPEELSKYRQVASHVGLHSASIPGILALDLCPSDTNKILTGGADKNVVVFDKSSEQILATLKGHTKKVTSVVFHPSQDLVFSASPDATIRIWSVPNASCVQVVRAHESAVTGLSLHATGDYLLSSSDDQYWAFSDIQTGRVLTKVTDETSGCSLTCAQFHPDGLIFGTGTMDSQIKIWDLKERTNVANFPGHSGPITSIAFSENGYYLATAADDSSVKLWDLRKLKNFKTLQLDNNFEVKSLIFDQSGTYLALGGTDVQIYICKQWTEILHFTEHSGLTTGVAFGHHAKFIASTGMDRSLKFYSL
